{"source": "paper PMC2787996", "about": "(Biochemical and biophysical research communications, 2009)", "binders": {"B1": {"name": "dRrp6 (natural protein, UniProt Q9VFF3 1-900, looked up)", "chain": "MPRTPKRVHQEAKEESAQADQPPKKSASEDVEAFTNKGFKNAIAATKAANAFPQGTARALYLSYPGYARVMEDLTQRVVALIGNVLHSKDIKGDIKKRQPEEQFEMVQECNDVLFERITTNLDIKGGLRRNTQQVVEAQVDVMSSSTSIEPAVASPQTQGTPKAGSWNRTTGTPQRSMVSARLFTAKNIVRPQTQFREPVDNSAQNPFVPRLKEKPNSLKPLALLPEYDDAGNVQSYLHPYEFELLKFQPPEEQFQKQKPVLPALMAETELMVVDTVEKLKQALEELRQAPQIAIDVEHHSYRTFMGITCLVQMSTRSKDYIFDTLILRDDMHILNLVLTDPKKLKILHGADLDIEWLQRDLSLYIVNMFDTHRAAKALNMARLSLAYLLKHYLDLDVDKSLQLADWRMRPLPQQLVDYARQDTHFLIYVYGRMTNDLLQQHAEPGLLGSVYQQSTDVCKKRYNKPHIGPESHLDLVRKTKRSFDNRQLYALRGIFEWRDATARSEDESYGYVLPNHMMLQIAESLPREMQGILACCNPIPPLVRQQLHTLHQIVLKARDQPLVKPILEAHSSTQAALPPSTKDFSSKLYCPHDFSQLEEIRDDLPTLLKRNSTTGKLEVPNKEEVAKVDPTLAAPAMALFEKQSKPTQEEEQRWAHLRKESQTMRMPYKRYLAILPLMVQLKADQLARERSELQKRQLCPAAPTVEQNIKLEAHAIGKEDDDMYSVPLKEQLKRKHPQANVKTDPEQQPTASKRPRKDENSQTKPPVKIEPVEKVQQALGESDDEVVEVPIERQATEPPKPSPAQNNRKQKKNQFQRGFKAKNRGNHPQSSSQQVPQHKGTGNFDYKNVDFRQFKGGAQRARGTEIKQQIRGKNRPNNRNNKQFNKLFTFSNVRKEGKK"}}, "target": "T1, dDis3-FLAG (Drosophila melanogaster, UniProt Q9VC93 1-982)", "T1 sequence (looked up)": "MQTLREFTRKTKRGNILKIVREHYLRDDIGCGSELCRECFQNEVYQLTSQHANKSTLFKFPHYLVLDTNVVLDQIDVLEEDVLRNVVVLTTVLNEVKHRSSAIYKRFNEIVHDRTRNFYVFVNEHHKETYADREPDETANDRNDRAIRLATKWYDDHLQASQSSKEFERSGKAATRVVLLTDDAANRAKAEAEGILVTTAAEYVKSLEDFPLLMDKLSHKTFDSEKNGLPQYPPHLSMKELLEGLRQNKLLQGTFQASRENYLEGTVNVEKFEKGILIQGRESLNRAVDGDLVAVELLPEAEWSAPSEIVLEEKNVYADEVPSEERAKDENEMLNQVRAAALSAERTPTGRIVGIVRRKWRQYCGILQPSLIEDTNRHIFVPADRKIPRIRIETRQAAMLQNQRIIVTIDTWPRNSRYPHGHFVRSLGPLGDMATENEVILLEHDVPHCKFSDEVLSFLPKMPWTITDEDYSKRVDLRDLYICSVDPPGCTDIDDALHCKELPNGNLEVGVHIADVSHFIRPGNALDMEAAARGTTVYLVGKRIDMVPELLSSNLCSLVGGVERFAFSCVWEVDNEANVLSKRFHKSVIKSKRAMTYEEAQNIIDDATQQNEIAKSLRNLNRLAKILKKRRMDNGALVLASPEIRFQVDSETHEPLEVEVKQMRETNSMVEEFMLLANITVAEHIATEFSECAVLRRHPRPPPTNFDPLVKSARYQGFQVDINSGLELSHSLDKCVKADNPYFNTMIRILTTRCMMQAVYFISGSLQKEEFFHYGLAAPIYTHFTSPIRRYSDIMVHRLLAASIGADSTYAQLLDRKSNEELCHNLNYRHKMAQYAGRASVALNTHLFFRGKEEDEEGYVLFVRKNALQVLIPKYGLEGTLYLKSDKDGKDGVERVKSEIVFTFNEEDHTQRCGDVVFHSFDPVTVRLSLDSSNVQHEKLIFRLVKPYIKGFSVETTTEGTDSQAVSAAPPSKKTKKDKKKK", "experiment": "co-IP"}
{"binder": "B1", "values": [{"measurement": "fold reduction in recovery (0.2 M Mg2+ against 0.01 M Mg2+)", "value": "~2", "unit": "fold"}]}
